The source of these data is patent publication US20240374682A1, “PHARMACEUTICAL USE OF HYPOXIA-INDUCIBLE LIPID DROPLET-ASSOCIATED PROTEIN OR TRUNCATED FRAGMENT THEREOF” (Westlake University, priority 2021, published 2024).

Positions count from the first letter of the chain named.

Assay [1] relates to HuH-7 cells, Hep-G2 cells or 786-0 cells. As to the kind of experiment: Uptake of Dil-labelled human low-density lipoprotein by cells (flow cytometry). Particulars: 10 μM peptide, 5 μg/mL LDL-Dil, 3 hours, versus solvent (DMSO). It is filed as cell-based. As for the experimental part:
1) HuH-7 cells (Cat. No.: TCHu182. Cell Bank of Type Culture Collection Committee of Chinese Academy of Sciences/Cell Resource Center of Shanghai Institutes for Life Sciences. Chinese Academy of Sciences) and Hep-G2 cells (Cat. No.: HB-8065. ATCC. USA) or 786-0 cells (Cat. No.: Cell Bank TCHul86. Cell Bank of Type Culture Collection Committee of Chinese Academy of Sciences/Cell Resource Center of Shanghai Institutes for Life Sciences, Chinese Academy of Sciences) were cultured with DMEM medium in a 10 cm cell culture dish.
2) Low-density lipoprotein from human plasma and Dil complex (Cat. No. L3482. Invitrogen) were added at a final concentration of 5 μg/mL to the above cells, and at the same time. 10 μM HILPDA P01, truncated sequence P03 of HILPDA or corresponding volume of solvent (DMSO) was added to the cell culture medium.
3) After culturing for 3 hours, the cells were washed twice with PBS, and the flow cytometry experiment was performed, and the Dil signal intensity of the cells was detected on the PE channel (as shown in FIGS. 8A to 8D).

A further assay relates to ES-2 cells. As to the kind of experiment: APOE3-3xHA uptake by recipient ES-2 cells with synthesized HILPDA peptides (immunofluorescence). Conditions: 10 μM peptide, 24 hours, versus solvent (DMSO). The format is cell-based. As for the experimental part:
(§1) 1) HEK293T cells were cultured with DMEM medium in a 10 cm cell culture dish.
2) A plasmid of APOE3-3xHA gene was expressed in the above cells.
(§2) 3) After 12 hours, the old medium in 1) was replaced with fresh DMEM cell culture medium.
4) After further culturing for 48 hours, the media of the cells cultured in 3) were collected. respectively, and these media were used to directly culture the recipient ES-2 cells (Cat. No.: TCHu111. Cell Bank of Typical Culture Collection Committee of Chinese Academy of Sciences/Cell Resource Center of Shanghai Institutes for Life Sciences. Chinese Academy of Sciences) that had been pre-digested with 0.25% EDTA trypsin, and at the same time, 10 μM truncated sequence HILPDA P01, HILPDA P03 or the corresponding volume of solvent (DMSO) was added to the cell culture media.
5) After culturing for 24 hours, anti-HA antibody (Cat. No.: ab9110, abcam: a fusion protein for detecting APOE3-3xHA gene expression) was used to carry out immunofluorescent staining experiments.

Assay [2] deals with SD rats. The experiment in a line: APOE content in rat cerebrospinal fluid after lateral ventricle injection (ELISA). The format is in vivo. Conditions: 0.8 mg/kg lateral ventricle, 4 hours after injection, versus solvent. As to the method:
1) SD rats (8-10 weeks, male, Shanghai Family Planning Institute) were injected through lateral ventricle with the truncated sequence P04 of HILPDA at a dose of 0.8 mg/kg rat body weight or with the same amount of solvent (50% DMSO+50% 0.9% NaCl) in total of 20 μL:
2) After 4 hours of injection, the cerebrospinal fluid of the rat was collected:
3) ELISA kit (Cat. No.: E-EL-R1230c, ELabScience) was used to detect the apolipoprotein APOE content in the cerebrospinal fluid.
On the technique in general: An ELISA detects its analyte on a solid surface through an enzyme-linked reagent.

The test system of assay [3] is SD rats. As to the kind of experiment: Low-density lipoprotein cholesterol level in rat plasma after tail vein injection. Particulars: 1.5 mg/kg tail vein, 5 hours after injection, versus solvent. The format is in vivo. As to the method:
1) SD rats (8-10 weeks old, female, Shanghai Family Planning Institute) were injected through tail vein with HILPDA P02 at a dose of 1.5 mg/kg rat body weight or the same amount of solvent (50% DMSO+50% 0.9% NaCl) in total of 100 μL:
2) After 5 hours of injection, about 1 mL of blood was collected from the tail vein, and the collected blood was placed in an EDTA-K2 anticoagulant tube and underwent ice-bath for 1 hour, then centrifuged at 2000*g at 4° C., for 10 minutes, and the supernatant plasma was collected:
3) A biochemical analyzer (Mindray 240) was used to analyze the low-density lipoprotein cholesterol content in the plasma (as shown in FIG. 10).

The next assay deals with mouse brain slices. The experiment in a line: APOE3 uptake by mouse brain slices from conditioned medium (immunofluorescence). The format is cell-based. Conditions: conditioned HEK293T medium, 48 hours, versus GFP-Flag + APOE3-3xHA. As for the experimental part: as §1
(§3) 2) The above cells were separately co-transfected with:
plasmid expressing GFP-FLAG and APOE3-3xHA plasmid, and
plasmid expressing HILPDA-Flag and APOE3-3xHA plasmid,
as §2
4) After further culturing for 48 hours, the media of the cultured cells in 3) were collected, respectively, and these media were used to directly culture mouse brain slices, wherein the brain slices were obtained by slicing fresh mouse brains to reach a thickness of 150 μm by a vibrating microtome. The slices were cultured in DMEM medium.
5) After culturing for 48 hours, immunofluorescent staining experiments were carried out with anti-HA antibody (Cat. No.: ab9110, abcam: for detecting APOE3-3xHA fusion protein).

The subject of assay [4] is recipient cells (786-O, 769-P, HuH7, ES-2). The experiment in a line: APOE uptake by recipient cells from conditioned medium of HEK293T cells co-expressing HILPDA-Flag and APOE-3xHA (immunofluorescence). It is filed as cell-based. Conditions: 24 hours. As to the method: as §1, §3
GFP-Flag expressing plasmid and APOE2-3xHA plasmid,
GFP-Flag expressing plasmid and APOE3-3xHA plasmid,
GFP-Flag expressing plasmid and APOE4-3xHA plasmid,
HILPDA-Flag expressing plasmid and APOE2-3xHA plasmid,
HILPDA-Flag expressing plasmid and APOE3-3xHA plasmid, and
HILPDA-Flag expressing plasmid and APOE4-3xHA plasmid.
as §2
4) After further culturing for 48 hours, the media of the cultured cells in 3) were collected, respectively, and these media were used to directly culture the recipient cells, such as 786-O (Cat. No.: Cell Bank TCHu186, Cell Bank of Type Culture Collection Committee of Chinese Academy of Sciences/Cell Resource Center of Shanghai Institutes for Life Sciences, Chinese Academy of Sciences), 769-P (Cat. No.: Cell Bank TCHu215, Cell Bank of Type Culture Collection Committee of Chinese Academy of Sciences/Cell Resource Center of Shanghai Institutes for Life Sciences, Chinese Academy of Sciences), HuH7 (Cat. No.: TCHu182, Cell Bank of Type Culture Collection Committee of Chinese Academy of Sciences/Cell Resource Center of Shanghai Institutes for Life Sciences, Chinese Academy of Sciences), ES-2 (Cat. No.: TCHu111, Cell Bank of Type Culture Collection Committee of Chinese Academy of Sciences/Cell Resource Center of Shanghai Institutes for Life Sciences, Chinese Academy of Sciences) wild-type cells, that had been pre-digested with trypsin containing 0.25% EDTA.
5) After culturing for 24 hours, anti-Flag (Cat. No.: F1804, sigma: for detecting GFP-Flag or HILPDA-Flag fusion protein) and anti-HA antibody (Cat. No.: ab9110, abcam: for detecting fusion proteins expressed by three different alleles of APOE2-3xHA, APOE3-3xHA or APOE4-3xHA) were used to perform immunofluorescent staining experiments.

In assay [5] the test system is neuronal cells obtained by induction and differentiation of human embryonic stem cells. The experiment in a line: APOE uptake by recipient neuronal cells from conditioned medium (western blotting). Particulars: conditioned HEK293T medium, 24 hours. The format is cell-based. As for the experimental part:
as §1
2) The above cells separately were: transfected to express APOE2-3xHA plasmid, transfected to express APOE3-3xHA plasmid, transfected to express APOE4-3xHA plasmid, co-transfected with plasmid expressing HILPDA-Flag and APOE2-3xHA plasmid, co-transfected with plasmid expressing HILPDA-Flag and APOE3-3xHA plasmid, and co-transfected with plasmid expressing HILPDA-Flag and APOE4-3xHA plasmid.
as §2
4) After further culturing for 48 hours, the media of the cultured cells in 3) were collected, respectively, and these media were used to directly culture recipient neuronal cells, wherein the neuronal cells were obtained by induction and differentiation of human embryonic stem cells (WA09-H9 Wincell Research Institute) through STEMdiff Neural (STEMCELL Technologits) differentiation system.
5) After culturing for 24 hours, anti-Actin (Cat. No.: Proteintech, 66009-1-Ig) and anti-HA antibody (Cat. No.: ab9110, abcam: used to detect three fusion proteins expressed by different alleles APOE2-3xHA, APOE3-3xHA or APOE4-3xHA) were used to perform western blotting.
On the technique in general: In western blotting, separated proteins are transferred to a membrane and probed.

Take “HILPDA P03: synthesized truncated human HILPDA, SEQ ID NO: 13 (MKHVLNLYLLGVVLTLLSIF) (truncated fragment of human HILPDA)”: the “uptake of human low-density lipoprotein particles (Dil signal intensity)” value in assay [1] was “Promote the Uptake”. In the assay with ES-2 cells, the “APOE3-3xHA uptake by recipient cells (anti-HA fluorescent signal)” value (“APOE3-3xHA uptake by recipient cells” for short) is “Promote the Clearance”.
For the molecule “HILPDA P04: synthesized truncated rat HILPDA, SEQ ID NO: 14 (MKYMLNLYVLGVMLTLLSIF) (truncated fragment of rat HILPDA)”, in the assay on SD rats [2], the “content of apolipoprotein APOE in the cerebrospinal fluid” value is recorded as “significantly decreased”.

B1: HILPDA P01: synthesized mouse HILPDA polypeptide, SEQ ID NO: 2 (peptide, listed as Mus musculus)
chain: MKFMLNLYVLGIMLTLLSIFVRVMESLGGLLESPLPGSSWITRGQLANTQPPKGLPDHPSRGVQ
As to B1, the “uptake of human low-density lipoprotein particles (Dil signal intensity)” value in assay [1] is “Promote the Uptake”. The “APOE3-3xHA uptake by recipient cells” value in the assay with ES-2 cells is “Promote the Clearance”.

B2: HILPDA P02: synthesized rat HILPDA polypeptide, SEQ ID NO: 12 (peptide, listed as Rattus norvegicus)
chain: B1 chain with F3Y, I12V, V23L, S33N, Q45H, K53R
For B2, the “low-density lipoprotein cholesterol level in plasma” value in the assay on SD rats [3] is listed as “significantly reduced”.

B3: HILPDA-Flag: human HILPDA protein fused with FLAG tag, expressed in HEK293T cells and secreted into culture medium (protein, UniProt Q9Y5L2 1-63, looked up)
Hypoxia-inducible lipid …: MKHVLNLYLLGVVLTLLSIFVRVMESLEGLLESPSPGTSWTTRSQLANTEPTKGLPDHPSRSM
modifications: FLAG tag
notes: human HILPDA protein fused with FLAG tag, expressed in HEK293T cells and secreted into culture medium
With B3, the “APOE3-3xHA uptake by brain slices (anti-HA fluorescent signal)” value in the assay with mouse brain slices was “more and stronger fluorescent signals”. The “APOE2-3xHA uptake by recipient cells (anti-HA fluorescent signal)” value in assay [4] (versus GFP-Flag + APOE2-3xHA) is “more and stronger fluorescent signals”. The “APOE3-3xHA uptake by recipient cells” value in assay [4] (versus GFP-Flag + APOE3-3xHA) is “more and stronger fluorescent signals”. Moreover, the “APOE4-3xHA uptake by recipient cells (anti-HA fluorescent signal)” value in assay [4] (versus GFP-Flag + APOE4-3xHA) was “more and stronger fluorescent signals”. The “APOE2-3xHA level in recipient neuronal cells (anti-HA bands)” value in assay [5] (versus APOE2-3xHA alone) is “higher levels of APOE”. Also, the “APOE3-3xHA level in recipient neuronal cells (anti-HA bands)” value in assay [5] (versus APOE3-3xHA alone) was “higher levels of APOE”. The “APOE4-3xHA level in recipient neuronal cells (anti-HA bands)” value in assay [5] (versus APOE4-3xHA alone) is “higher levels of APOE”.
